Results from patent US20210181204A1 (SYNGENTA PARTICIPATIONS, published 2021).

T1: mCry3A insecticidal protein (Bacillus thuringiensis subsp. …, UniProt P0A379 48-644, limits assumed)
T1 construct: also called modified Cry3A
T1 sequence: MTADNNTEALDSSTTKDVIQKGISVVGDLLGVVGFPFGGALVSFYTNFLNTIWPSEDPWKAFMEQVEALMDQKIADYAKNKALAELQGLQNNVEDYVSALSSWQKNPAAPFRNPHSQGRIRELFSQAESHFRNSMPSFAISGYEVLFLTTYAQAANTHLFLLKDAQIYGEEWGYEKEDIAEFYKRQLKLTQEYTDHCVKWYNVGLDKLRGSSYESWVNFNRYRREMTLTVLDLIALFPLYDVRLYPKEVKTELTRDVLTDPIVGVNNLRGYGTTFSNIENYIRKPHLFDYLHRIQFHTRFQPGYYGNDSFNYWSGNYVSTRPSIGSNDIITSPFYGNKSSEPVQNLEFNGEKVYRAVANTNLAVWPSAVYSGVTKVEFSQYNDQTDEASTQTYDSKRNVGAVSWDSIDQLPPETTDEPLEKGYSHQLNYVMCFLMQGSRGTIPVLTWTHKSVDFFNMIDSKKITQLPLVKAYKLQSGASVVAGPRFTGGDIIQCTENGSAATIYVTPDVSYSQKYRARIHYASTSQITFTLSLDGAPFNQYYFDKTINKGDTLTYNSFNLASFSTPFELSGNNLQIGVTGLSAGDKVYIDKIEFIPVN

B1: synNAPS-11tag ligand (designed binder)
chain: MRGSHHHHHHGSVKVKFGLGGEEKEVDTSKIRRVLRLGKLVSFTYDDNGKIGLGDVHEKDAPKELLDMLARAEREKKLGSGLNDIFEAQKIEWH
modifications: in vivo biotinylation (E. coli BirA strain) on the C-terminal avidin-tag
notes: also called tagged synNAPS 11
B2: synNAPS-9tag ligand (designed binder)
chain: MRGSHHHHHHGSVKVKFAQGGEEKEVDTSKIYRVPRHGKIVFFMYDDNGKGGFGHVTEKDAPKELLDMLARAEREKKLGSGLNDIFEAQKIEWH
modifications: in vivo biotinylation (E. coli BirA strain) on the C-terminal avidin-tag
notes: also called NsynNAPS9; tagged synNAPS 9
B3: synNAPS-2tag ligand (designed binder)
chain: MRGSHHHHHHGSVKVKFKYKGEEKEVDTSKIVWIGRFGKSVYFRYDDNGKTGAGRVYEKDAPKELLDMLARAEREKKLGSGLNDIFEAQKIEWH
modifications: in vivo biotinylation (E. coli BirA strain) on the C-terminal avidin-tag
notes: also called tagged synNAPS 2
B4: synNAPS-13tag ligand (designed binder)
chain: MRGSHHHHHHGSVKVKFKRWGEEKEVDTSKILHVLRVGKYVRFSYDDNGKLGAGYVTEKDAPKELLDMLARAEREKKLGSGLNDIFEAQKIEWH
modifications: in vivo biotinylation (E. coli BirA strain) on the C-terminal avidin-tag
notes: also called tagged synNAPS 13
B5: synNAPS-13 ligand (designed binder)
chain: MVKVKFKRWGEEKEVDTSKILHVLRVGKYVRFSYDDNGKLGAGYVTEKDAPKELLDMLARAEREKK

Tests used:
[1] = biological target: Cry1Ab.1Ca insecticidal protein; experiment: direct ELISA, coated protein, SA-AP, 405 nm
[2] = biological target: T2, Cry1Ab insecticidal protein (Bacillus thuringiensis, UniProt P0A370 1-615); experiment: direct ELISA, coated protein, SA-AP, 405 nm
[3] = biological target: T3, Cry1Aa insecticidal protein (Bacillus thuringiensis subsp. aizawai, UniProt P0A367 12-1176); experiment: direct ELISA: protein coated at 500 ng/ml, 10 nM tagged synNAPS with SA-AP
[4] = biological target: Cry1Ai insecticidal protein; experiment: as above
[5] = biological target: T1, mCry3A insecticidal protein; experiment: as above
[6] = biological target: eCry3.1Ab hybrid insecticidal protein; experiment: as above
[7] = biological target: T3, Cry1Aa insecticidal protein; experiment: direct ELISA, coated protein, SA-AP, 405 nm
[8] = biological target: Cry1Ai insecticidal protein; experiment: direct ELISA, coated protein, SA-AP, 405 nm
[9] = biological target: eCry3.1Ab hybrid insecticidal protein; experiment: direct ELISA, coated protein, SA-AP, 405 nm
[10] = biological target: T2, Cry1Ab insecticidal protein; experiment: sandwich ELISA: synNAPS on streptavidin plate, HRP-antibody detection; Cry1Ab 10 ng/ml
[11] = biological target: T1, mCry3A insecticidal protein; experiment: sandwich ELISA: synNAPS on streptavidin plate, HRP-antibody detection; mCry3A 60 ng/ml
[12] = biological target: T1, mCry3A insecticidal protein; experiment: direct ELISA, coated protein, SA-AP, 405 nm
[13] = biological target: Cry1Ab.1Ca insecticidal protein; experiment: direct ELISA: protein coated at 500 ng/ml, 10 nM tagged synNAPS with SA-AP
[14] = biological target: T2, Cry1Ab insecticidal protein; experiment: as above
[15] = biological target: T1, mCry3A insecticidal protein; experiment: affinity capture on synNAPS-13 streptavidin beads from corn leaf extract, eluate measured by ELISA
[16] = biological target: T2, Cry1Ab insecticidal protein; experiment: direct binding ELISA with leaf extracts expressing synNAPS-13, A405
[17] = biological target: T1, mCry3A insecticidal protein; experiment: as above
[18] = biological target: eCry3.1Ab hybrid insecticidal protein; experiment: direct ELISA: eCry3.1Ab coated at 1 ug/ml, RGS-His HRP detection

| Binder | binding result [1] | binding result [2] | Binding to Insecticidal Protein (read at 405 nm) [3] [absorbance 405 nm] | Binding to Insecticidal Protein (read at 405 nm) [4] [absorbance 405 nm] | Binding to Insecticidal Protein (read at 405 nm) [5] [absorbance 405 nm] | Binding to Insecticidal Protein (read at 405 nm) [6] [absorbance 405 nm] | binding result [7] | binding result [8] | binding result [9] | Absorbance at protein concentration (ng/ml) [10] [absorbance 450 nm] | Absorbance at protein concentration (ng/ml) [11] [absorbance 450 nm] | binding result [12] | Binding to Insecticidal Protein (read at 405 nm) [13] [absorbance 405 nm] | Binding to Insecticidal Protein (read at 405 nm) [14] [absorbance 405 nm] | Quantity of Protein (ng/ml) eluted from synNAPS-13 beads [15] [ng/mL] | binding result [16] | binding result [17] | Binding (OD 450 nm) [18] [OD 450 nm] |
| --- | --- | --- | --- | --- | --- | --- | --- | --- | --- | --- | --- | --- | --- | --- | --- | --- | --- | --- |
| B1 | no binding (tested: 10 nM) | no binding (tested: 10 nM) | 0.6 | 0.7 | 2.9 | 1.5 | – | – | – | – | – | – | – | – | – | – | – | – |
| B2 | no binding (tested: 10 nM) | no binding (tested: 10 nM) | – | – | 0.7 | – | no binding (tested: 10 nM) | no binding (tested: 10 nM) | no binding (tested: 10 nM) | 0 | 2 | – | – | – | – | – | – | – |
| B3 | – | – | – | 2.5 | – | – | no binding (tested: 10 nM) | – | no binding (tested: 10 nM) | 4 | 0 | no binding (tested: 10 nM) | 1 | 1.8 | – | – | – | – |
| B4 | no binding (tested: 10 nM) | no binding (tested: 10 nM) | – | – | – | – | no binding (tested: 10 nM) | no binding (tested: 10 nM) | – | 0 | 0 | no binding (tested: 10 nM) | – | – | 0 | – | – | – |
| B5 | – | – | – | – | – | – | – | – | – | – | – | – | – | – | – | no binding | no binding | 4.1 |
